The target of this assay is GFP-SR-BI (scavenger receptor BI) on CHO cells (UniProt Q8WTV0).
UniProt Q8WTV0, sequence (Q8WTV0 whole entry): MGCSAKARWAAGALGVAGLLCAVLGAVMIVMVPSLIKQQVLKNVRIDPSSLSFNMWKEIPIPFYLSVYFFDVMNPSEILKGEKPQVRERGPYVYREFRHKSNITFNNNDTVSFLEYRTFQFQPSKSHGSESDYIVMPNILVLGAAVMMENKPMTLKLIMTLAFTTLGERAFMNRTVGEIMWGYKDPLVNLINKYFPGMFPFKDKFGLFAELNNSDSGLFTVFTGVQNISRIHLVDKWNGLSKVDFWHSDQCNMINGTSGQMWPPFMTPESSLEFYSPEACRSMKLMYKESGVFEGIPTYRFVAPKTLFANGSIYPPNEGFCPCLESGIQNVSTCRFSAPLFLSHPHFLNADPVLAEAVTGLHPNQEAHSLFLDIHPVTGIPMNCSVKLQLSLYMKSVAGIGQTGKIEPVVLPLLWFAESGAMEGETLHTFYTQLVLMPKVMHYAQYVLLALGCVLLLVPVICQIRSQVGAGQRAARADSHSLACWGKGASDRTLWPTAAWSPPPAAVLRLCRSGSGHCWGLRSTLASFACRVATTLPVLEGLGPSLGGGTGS

“Alexa Fluor 568 labeled human high-density lipoprotein (from UniProt P02647 19-267) (complex)”: the AF568-HDL internalization by HCCMECs after pre-treatment with 10 ug/mL blocking anti-SR-BI scFv (percent decrease) is 57%.

The values above are taken from article PMC5670330.
